According to PMC5308906 (2016):
No end group written: not given here.

Molecular target: T1, ψIRS1-Cargo V5 (Homo sapiens, UniProt Q05655, not fully specified)
T1 chain: EKARLSYS
Experiment: AGILE Dev Kit binding assay

Kd: 200 nM
B1: θPKC (protein)
chain: MSPFLRIGLSNFDCGSCQSCQGEAVNPYCAVLVKEYVESENGQMYIQKKPTMYPPWDSTFDAHINKGRVMQIIVKGKNVDLISETTVELYSLAERCRKNNGKTEIWLELKPQGRMLMNARYFLEMSDTKDMNEFETEGFFALHQRRGAIKQAKVHHVKCHEFTATFFPQPTFCSVCHEFVWGLNKQGYQCRQCNAAIHKKCIDKVIAKCTGSAINSRETMFHKERFKIDMPHRFKVYNYKSPTFCEHCGTLLWGLARQGLKCDACGMNVHHRCQTKVANLCGINQKLMAEALAMIESTQQARCLRDTEQIFREGPVEIGLPCSIKNEARPPCLPTPGKREPQGISWESPLDEVDKMCHLPEPELNKERPSLQIKLKIEDFILHKMLGKGSFGKVFLAEFKKTNQFFAIKALKKDVVLMDDDVECTMVEKRVLSLAWEHPFLTHMFCTFQTKENLFFVMEYLNGGDLMYHIQSCHKFDLSRATFYAAEIILGLQFLHSKGIVYRDLKLDNILLDKDGHIKIADFGMCKENMLGDAKTNTFCGTPDYIAPEILLGQKYNHSVDWWSFGVLLYEMLIGQSPFHGQDEEELFHSIRMDNPFYPRWLEKEAKDLLVKLFVREPEKRLGVRGDIRQHPLFREINWEELERKEIDPPFRPKVKSPFDCSNFDKEFLNEKPRLSFADRALINSMDQNMFRNFSFMNPGMERLIS
